In publication PMC8104107:

Target: T1, influenza A/WSN/33 virus nucleoprotein (NP), recombinant (influenza A virus A/WSN/33 (H1N1)), P15682
T1 chain: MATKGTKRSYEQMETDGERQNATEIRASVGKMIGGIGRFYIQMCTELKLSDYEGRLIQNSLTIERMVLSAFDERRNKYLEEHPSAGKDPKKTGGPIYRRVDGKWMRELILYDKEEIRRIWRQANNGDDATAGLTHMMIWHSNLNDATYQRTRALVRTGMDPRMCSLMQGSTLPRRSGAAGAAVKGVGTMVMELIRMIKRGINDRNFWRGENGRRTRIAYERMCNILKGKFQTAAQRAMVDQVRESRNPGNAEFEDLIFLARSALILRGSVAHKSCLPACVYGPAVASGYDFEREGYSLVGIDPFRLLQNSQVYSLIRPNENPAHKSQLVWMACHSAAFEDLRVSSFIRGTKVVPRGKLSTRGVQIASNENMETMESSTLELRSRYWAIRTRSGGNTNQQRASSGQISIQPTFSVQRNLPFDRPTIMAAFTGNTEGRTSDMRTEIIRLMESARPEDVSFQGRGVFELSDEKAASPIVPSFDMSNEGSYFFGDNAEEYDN
Assay: crystal structure; NP mixed with FA-6005 (final 0.5 mM) before crystallization; 0.1 M sodium acetate, 0.05 M magnesium acetate, 0.1 M MES pH 6.0, 7% PEG 8000, 5% glycerol; space group C222(1), one trimer in each asymmetric unit
Conditions: remark: other sources report otherwise

B1: influenza A/WSN/33 virus nucleoprotein (NP), recombinant, P15682 1-498 (natural protein)
chain: T1 chain
  stoichiometry N: 3
